The test has as its target Kv2.1 subunit (unlabeled) (human) (UniProt Q14721).

B1: Kv6.4 subunit (unlabeled) (natural protein)
chain: MPMPSRDGGLHPRHHHYGSHSPWSQLLSSPMETPSIKGLYYRRVRKVGALDASPVDLKKEILINVGGRRYLLPWSTLDRFPLSRLSKLRLCRSYEEIVQLCDDYDEDSQEFFFDRSPSAFGVIVSFLAAGKLVLLQEMCALSFQEELAYWGIEEAHLERCCLRKLLRKLEELEELAKLHREDVLRQQRETRRPASHSSRWGLCMNRLREMVENPQSGLPGKVFACLSILFVATTAVSLCVSTMPDLRAEEDQGECSRKCYYIFIVETICVAWFSLEFCLRFVQAQDKCQFFQGPLNIIDILAISPYYVSLAVSEEPPEDGERPSGSSYLEKVGLVLRVLRALRILYVMRLARHSLGLQTLGLTVRRCTREFGLLLLFLAVAITLFSPLVYVAEKESGRVLEFTSIPASYWWAIISMTTVGYGDMVPRSVPGQMVALSSILSGILIMAFPATSIFHTFSHSYLELKKEQEQLQARLRHLQNTGPASECELLDPHVASEHELMNDVNDLILEGPALPIMHM
Regarding B1, the midpoint of the voltage dependence of inactivation, V1/2, of whole-cell currents in HEK293 cells co-expressing Kv2.1 and Kv6.4 (Kv2.1 alone: −22.6 mV) was -59.3 mV.

(Values after paper PMC4047056.)
